Molecular target: the molecule itself
Assay: native gel or EMSA; ATP-bound tmaDnaA on a 30 bp DNA (300 nM) with the oppositely oriented tmaDnaA boxes 2 and 3; complexes with one (C1) or two (C2) tmaDnaA molecules; 8% polyacrylamide gel, GelStar staining; self-interaction read from the preference for C2 on DNA

B1: Thermotoga maritima DnaA initiator (tmaDnaA), wildtype (natural protein, UniProt P46798 1-440, looked up)
chain: MKERILQEIKTRVNRKSWELWFSSFDVKSIEGNKVVFSVGNLFIKEWLEKKYYSVLSKAVKVVLGNDATFEITYEAFEPHSSYSEPLVKKRAVLLTPLNPDYTFENFVVGPGNSFAYHAALEVAKHPGRYNPLFIYGGVGLGKTHLLQSIGNYVVQNEPDLRVMYITSEKFLNDLVDSMKEGKLNEFREKYRKKVDILLIDDVQFLIGKTGVQTELFHTFNELHDSGKQIVICSDREPQKLSEFQDRLVSRFQMGLVAKLEPPDEETRKSIARKMLEIEHGELPEEVLNFVAENVDDNLRRLRGAIIKLLVYKETTGKEVDLKEAILLLKDFIKPNRVKAMDPIDELIEIVAKVTGVPREEILSNSRNVKALTARRIGMYVAKNYLKSSLRTIAEKFNRSHPVVVDSVKKVKDSLLKGNKQLKALIDEVIGEISRRALSG
notes: DnaA chromosomal replication initiator protein of Thermotoga maritima (tmaDnaA); also called WT tmaDnaA; ATP-tmaDnaA; source: purified as described previously (40); plasmid pTHMA-1
binding result: binds

— paper PMC10316083, “Thermotoga maritima oriC involves a DNA unwinding element with distinct modules and a DnaA-oligomerizing region with a novel directional binding mode” (The Journal of Biological Chemistry, 2023)
